Source: PMC3950713

Assays:
Test in all cases: MST
HpDprA(5-217)R143E = biological target: T1, HpDprA(5-217)R143E (Helicobacter pylori 26695, UniProt O25100 5-217, R143E)
T1 sequence: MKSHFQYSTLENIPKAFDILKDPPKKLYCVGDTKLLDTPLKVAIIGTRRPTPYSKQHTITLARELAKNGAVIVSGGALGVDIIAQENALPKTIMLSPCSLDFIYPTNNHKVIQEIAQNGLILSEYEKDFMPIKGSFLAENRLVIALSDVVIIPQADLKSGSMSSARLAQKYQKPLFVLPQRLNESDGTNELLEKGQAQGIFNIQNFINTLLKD

HpDprA(5-217)R52E/R143E = biological target: T2, HpDprA(5-217)R52E/R143E (Helicobacter pylori 26695, UniProt O25100 5-217, R52E;R143E)
T2 sequence: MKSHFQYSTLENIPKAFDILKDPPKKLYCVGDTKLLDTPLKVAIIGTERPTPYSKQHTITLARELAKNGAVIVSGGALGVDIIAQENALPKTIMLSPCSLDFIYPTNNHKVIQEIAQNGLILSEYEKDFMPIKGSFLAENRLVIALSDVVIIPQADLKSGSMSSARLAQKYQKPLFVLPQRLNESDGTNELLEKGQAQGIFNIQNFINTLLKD

HpDprA(5-217)Y108E = biological target: T3, HpDprA(5-217)Y108E (Helicobacter pylori 26695, UniProt O25100 5-217, Y108E)
T3 sequence: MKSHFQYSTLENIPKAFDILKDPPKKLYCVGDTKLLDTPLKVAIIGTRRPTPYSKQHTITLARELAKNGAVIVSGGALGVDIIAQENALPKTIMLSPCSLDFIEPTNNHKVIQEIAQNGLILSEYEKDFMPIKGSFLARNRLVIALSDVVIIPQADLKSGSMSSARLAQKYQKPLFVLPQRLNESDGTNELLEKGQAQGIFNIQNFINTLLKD

HpDprA(5-217)R52E = biological target: T4, HpDprA(5-217)R52E (Helicobacter pylori 26695, UniProt O25100 5-217, R52E)
T4 sequence: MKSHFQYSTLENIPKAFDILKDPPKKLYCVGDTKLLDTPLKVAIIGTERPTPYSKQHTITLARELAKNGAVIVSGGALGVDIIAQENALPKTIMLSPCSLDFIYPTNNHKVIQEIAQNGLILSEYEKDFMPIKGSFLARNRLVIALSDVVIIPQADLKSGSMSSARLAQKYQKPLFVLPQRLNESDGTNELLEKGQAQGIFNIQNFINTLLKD

HpDprA(5-217)F140E = biological target: T5, HpDprA(5-217)F140E (Helicobacter pylori 26695, UniProt O25100 5-217, F140E)
T5 sequence: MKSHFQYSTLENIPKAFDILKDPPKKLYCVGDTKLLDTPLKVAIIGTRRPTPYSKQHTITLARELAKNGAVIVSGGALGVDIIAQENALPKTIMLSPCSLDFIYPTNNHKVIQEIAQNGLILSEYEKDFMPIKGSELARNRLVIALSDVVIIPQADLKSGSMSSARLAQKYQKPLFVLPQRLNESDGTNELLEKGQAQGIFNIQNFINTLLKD

HpDprA(5-217)Y11E = biological target: T6, HpDprA(5-217)Y11E (Helicobacter pylori 26695, UniProt O25100 5-217, Y11E)
T6 sequence: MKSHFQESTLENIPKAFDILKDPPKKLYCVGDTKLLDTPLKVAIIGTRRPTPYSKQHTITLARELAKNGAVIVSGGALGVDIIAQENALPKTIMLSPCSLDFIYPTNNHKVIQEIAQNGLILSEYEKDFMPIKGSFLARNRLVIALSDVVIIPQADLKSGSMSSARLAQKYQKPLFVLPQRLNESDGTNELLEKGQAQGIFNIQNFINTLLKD

HpDprA(5-225) = biological target: T7, HpDprA(5-225) (Helicobacter pylori 26695, UniProt O25100 5-225)
T7 sequence: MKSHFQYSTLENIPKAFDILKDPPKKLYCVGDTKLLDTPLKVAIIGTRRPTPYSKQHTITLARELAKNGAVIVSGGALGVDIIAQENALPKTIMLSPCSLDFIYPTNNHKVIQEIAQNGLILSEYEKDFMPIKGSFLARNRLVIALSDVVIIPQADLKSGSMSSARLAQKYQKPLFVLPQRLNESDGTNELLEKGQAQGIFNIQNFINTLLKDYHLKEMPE

TTTTTTTTTTTTTTTTTTTTTTTTTTTTTTTTTTT (ssDNA) [dT35]
Kd (HpDprA(5-217)R143E): 5470 ± 246 nM | binding result (HpDprA(5-217)R52E/R143E): no binding | Kd (HpDprA(5-217)Y108E): 351 ± 6.88 nM | Kd (HpDprA(5-217)R52E): 9950 ± 367 nM | Kd (HpDprA(5-217)F140E): 556 ± 28 nM | Kd (HpDprA(5-217)Y11E): 55.9 ± 1.82 nM | Kd (HpDprA(5-225)): 30.6 ± 0.998 nM
